Data published in paper PMC7078309, “New Therapeutic Candidates for the Treatment of Malassezia pachydermatis -Associated Infections” (Scientific Reports, 2020).

Substrate: O=C(O)CCC(=O)C(=O)O
Assay: NAD/NADH quantification kit, Lineweaver-Burk
Type: biochemical, Malassezia pachydermatis
Details: without inhibitor; reverse reaction; 2-OG 15-30 mM; NADH
Source text: NAD/NADH quantification kit, Lineweaver-Burk on MpSDH

B1: MpSDH (Malassezia pachydermatis) (protein)
chain: MTGTQALWLRCETKPAEHRSALTPTTAKKLINAGFDITVERDPNRIFDDEEFEKVGCHMAEYHSWPKAPKTTPIIGLKELDTPGPDLEHTHIQFAHCYKHQEGWVDVLARFKRGGGKLYDLEFLEDANGRRVAAFGWHAGFAGAALGLLALAEQVEGKVLGAQTKYPNEEALMEKTREAVRVIRKHRPDGRVTSLIIGALGRCGRGAIDCLEKSGLQSDEIVRWDIQETSAKSGPYQEIIDSDLFVNCIYLSKKIPPFVNKESLQAVGDKRRLGMIVDVSCDTTNPNNPIPVYSINTTFDKPTVAVDGFDKLEVISIDHLPTLLPREASEAFSNDLLPSLLQLPLVTGVAGEEALQHVNEEGKGAVWTRAEALFRKHLAEAEANGA
notes: synthetic gene, C-terminal 6xHN tag (pET6xHN-C), expressed in E. coli BL21, Ni-IMAC, 43 kDa band on SDS-PAGE
  Km: 0.25 ± 7.1e-02 mM
